One may read the koff as the first-order rate constant of dissociation. Lower therefore signals slow dissociation. Usually kon stands for the second-order rate constant of association. Higher therefore signals faster complex formation. The Kd is the constant that tells how readily two partners part at equilibrium. Higher therefore signals lower affinity.

The target of experiment [1] is T1, low density lipoprotein receptor-related protein (LRP), purified and immobilized (UniProt Q07954 20-4544, limits assumed).
T1 construct: Purified LRP, amine-coupled to a CM5 sensor chip; also called low density lipoprotein receptor protein; alpha2-macroglobulin receptor
T1 sequence (Q07954 20-4544 limits assumed, form in doubt): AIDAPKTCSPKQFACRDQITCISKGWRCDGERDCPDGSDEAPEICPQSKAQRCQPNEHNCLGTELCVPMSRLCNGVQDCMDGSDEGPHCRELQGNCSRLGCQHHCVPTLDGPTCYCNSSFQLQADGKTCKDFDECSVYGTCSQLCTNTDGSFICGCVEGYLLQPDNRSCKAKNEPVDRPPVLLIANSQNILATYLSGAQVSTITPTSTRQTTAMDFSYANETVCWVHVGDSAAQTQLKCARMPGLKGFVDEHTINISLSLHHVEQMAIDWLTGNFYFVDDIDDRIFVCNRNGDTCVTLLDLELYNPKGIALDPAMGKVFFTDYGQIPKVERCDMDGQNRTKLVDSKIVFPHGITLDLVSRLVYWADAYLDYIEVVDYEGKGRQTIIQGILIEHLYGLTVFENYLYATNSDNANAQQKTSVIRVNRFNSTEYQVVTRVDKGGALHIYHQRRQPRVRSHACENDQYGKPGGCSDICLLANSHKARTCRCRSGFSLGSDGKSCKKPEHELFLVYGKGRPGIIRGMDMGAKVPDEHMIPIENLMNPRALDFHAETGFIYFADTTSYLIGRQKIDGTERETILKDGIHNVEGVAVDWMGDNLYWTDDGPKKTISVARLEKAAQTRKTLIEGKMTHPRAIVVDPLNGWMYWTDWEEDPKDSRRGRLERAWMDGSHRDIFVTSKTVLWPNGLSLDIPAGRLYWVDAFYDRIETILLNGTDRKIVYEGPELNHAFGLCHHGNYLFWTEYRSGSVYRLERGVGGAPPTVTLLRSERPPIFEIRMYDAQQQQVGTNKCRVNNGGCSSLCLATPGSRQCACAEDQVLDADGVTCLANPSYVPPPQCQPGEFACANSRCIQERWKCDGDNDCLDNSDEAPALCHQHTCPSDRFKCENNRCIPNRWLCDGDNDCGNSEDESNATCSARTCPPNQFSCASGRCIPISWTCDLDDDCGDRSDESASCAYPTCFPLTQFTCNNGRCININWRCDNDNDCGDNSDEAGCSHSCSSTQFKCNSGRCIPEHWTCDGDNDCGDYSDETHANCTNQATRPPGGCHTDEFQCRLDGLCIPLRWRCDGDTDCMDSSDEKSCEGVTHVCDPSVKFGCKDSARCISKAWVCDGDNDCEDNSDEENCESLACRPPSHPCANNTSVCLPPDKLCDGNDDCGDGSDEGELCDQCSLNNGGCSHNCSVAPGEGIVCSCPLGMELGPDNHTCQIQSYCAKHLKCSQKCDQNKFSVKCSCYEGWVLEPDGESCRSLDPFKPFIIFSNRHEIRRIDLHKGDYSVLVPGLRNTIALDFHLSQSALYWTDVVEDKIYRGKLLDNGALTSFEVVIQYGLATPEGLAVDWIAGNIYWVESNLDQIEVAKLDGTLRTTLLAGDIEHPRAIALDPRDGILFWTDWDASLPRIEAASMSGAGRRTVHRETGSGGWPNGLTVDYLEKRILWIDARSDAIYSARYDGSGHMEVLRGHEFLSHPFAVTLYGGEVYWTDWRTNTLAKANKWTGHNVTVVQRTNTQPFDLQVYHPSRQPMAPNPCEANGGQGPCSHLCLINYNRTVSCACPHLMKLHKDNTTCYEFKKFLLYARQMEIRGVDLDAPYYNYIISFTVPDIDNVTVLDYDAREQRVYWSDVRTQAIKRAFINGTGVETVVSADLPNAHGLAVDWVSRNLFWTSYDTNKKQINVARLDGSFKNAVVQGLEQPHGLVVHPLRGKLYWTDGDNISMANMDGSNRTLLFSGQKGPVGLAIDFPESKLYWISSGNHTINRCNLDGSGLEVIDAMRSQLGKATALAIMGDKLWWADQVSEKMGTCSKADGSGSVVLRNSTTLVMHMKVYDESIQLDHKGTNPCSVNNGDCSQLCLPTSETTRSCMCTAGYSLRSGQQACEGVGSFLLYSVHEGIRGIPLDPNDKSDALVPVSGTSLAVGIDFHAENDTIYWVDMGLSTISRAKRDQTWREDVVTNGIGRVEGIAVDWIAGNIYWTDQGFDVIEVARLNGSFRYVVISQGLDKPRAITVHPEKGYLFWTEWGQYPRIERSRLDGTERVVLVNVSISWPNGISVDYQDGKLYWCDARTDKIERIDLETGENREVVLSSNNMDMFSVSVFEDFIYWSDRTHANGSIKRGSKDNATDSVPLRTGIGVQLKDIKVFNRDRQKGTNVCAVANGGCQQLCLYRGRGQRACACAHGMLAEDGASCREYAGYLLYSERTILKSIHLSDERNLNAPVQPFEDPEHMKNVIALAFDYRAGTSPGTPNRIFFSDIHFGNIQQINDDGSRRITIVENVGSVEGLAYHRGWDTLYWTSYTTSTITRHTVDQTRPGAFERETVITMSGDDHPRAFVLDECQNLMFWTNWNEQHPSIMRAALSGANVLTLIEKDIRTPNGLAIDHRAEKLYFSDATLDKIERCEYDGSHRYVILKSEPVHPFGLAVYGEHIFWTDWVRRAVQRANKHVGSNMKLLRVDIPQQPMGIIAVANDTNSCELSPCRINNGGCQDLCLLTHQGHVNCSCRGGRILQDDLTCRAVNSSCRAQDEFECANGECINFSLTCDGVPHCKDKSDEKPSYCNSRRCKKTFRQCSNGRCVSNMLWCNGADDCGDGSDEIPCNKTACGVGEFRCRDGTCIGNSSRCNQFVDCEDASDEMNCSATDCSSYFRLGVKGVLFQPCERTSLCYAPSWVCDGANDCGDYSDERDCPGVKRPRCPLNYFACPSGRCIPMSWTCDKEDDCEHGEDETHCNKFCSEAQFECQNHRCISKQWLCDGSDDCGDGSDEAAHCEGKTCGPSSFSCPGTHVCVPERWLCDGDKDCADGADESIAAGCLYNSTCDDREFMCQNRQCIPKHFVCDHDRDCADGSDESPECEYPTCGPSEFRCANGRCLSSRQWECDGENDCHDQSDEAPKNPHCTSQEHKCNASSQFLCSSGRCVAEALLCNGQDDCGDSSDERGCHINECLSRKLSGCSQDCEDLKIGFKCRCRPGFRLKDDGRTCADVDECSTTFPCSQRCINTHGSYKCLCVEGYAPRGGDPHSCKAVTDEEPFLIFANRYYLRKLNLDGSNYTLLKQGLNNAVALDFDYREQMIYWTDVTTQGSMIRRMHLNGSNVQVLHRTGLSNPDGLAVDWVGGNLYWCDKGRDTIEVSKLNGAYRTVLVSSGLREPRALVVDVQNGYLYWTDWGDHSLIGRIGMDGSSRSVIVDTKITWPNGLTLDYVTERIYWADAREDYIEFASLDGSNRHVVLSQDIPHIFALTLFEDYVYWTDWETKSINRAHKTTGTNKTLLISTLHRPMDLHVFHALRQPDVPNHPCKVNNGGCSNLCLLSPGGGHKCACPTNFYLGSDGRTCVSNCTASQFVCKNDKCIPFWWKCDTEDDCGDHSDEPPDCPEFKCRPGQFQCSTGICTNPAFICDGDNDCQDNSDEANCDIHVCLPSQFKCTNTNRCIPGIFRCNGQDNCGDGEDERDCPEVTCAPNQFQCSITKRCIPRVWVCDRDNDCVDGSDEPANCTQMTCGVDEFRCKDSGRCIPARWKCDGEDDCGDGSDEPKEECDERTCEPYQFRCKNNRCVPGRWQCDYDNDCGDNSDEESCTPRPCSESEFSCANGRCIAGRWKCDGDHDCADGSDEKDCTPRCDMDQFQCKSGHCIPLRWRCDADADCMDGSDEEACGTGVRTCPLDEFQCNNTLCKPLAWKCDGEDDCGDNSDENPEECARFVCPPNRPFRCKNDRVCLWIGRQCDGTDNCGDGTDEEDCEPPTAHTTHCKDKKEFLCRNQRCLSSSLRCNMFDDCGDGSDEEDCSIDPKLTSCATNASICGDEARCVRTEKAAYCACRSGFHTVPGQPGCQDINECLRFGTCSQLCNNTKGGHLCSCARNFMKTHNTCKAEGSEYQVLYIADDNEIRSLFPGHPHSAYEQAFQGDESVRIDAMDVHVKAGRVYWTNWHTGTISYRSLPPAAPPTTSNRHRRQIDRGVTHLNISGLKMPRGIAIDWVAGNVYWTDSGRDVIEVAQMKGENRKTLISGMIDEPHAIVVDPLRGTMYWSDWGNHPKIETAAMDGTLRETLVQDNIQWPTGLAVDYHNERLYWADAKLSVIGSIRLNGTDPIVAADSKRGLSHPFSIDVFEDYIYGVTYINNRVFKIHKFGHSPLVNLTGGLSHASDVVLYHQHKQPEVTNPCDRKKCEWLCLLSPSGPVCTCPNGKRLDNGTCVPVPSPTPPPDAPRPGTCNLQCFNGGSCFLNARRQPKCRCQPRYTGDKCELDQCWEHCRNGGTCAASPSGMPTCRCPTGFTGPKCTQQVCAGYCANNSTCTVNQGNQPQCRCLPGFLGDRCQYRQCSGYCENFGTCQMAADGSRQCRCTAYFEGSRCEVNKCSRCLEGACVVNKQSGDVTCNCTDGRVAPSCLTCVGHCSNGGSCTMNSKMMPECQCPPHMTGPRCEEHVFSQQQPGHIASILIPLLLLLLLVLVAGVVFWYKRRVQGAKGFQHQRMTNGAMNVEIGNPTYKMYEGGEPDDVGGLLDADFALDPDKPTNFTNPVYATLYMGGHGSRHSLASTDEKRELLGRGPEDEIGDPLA
In words: SPR, LRP immobilized (6.7 fmol/mm^2), two classes of binding sites, class A. Here is the method:
(§1) This method is generally known in the art and was employed for the kinetic analysis of the interaction between LRP and receptor-associated protein (RAP) (Hom I, in LRP-ligand interactions: kinetics and structural requirements; Ph.D. thesis, 1997, pp. 65-106, Amsterdam University). […] Subsequently, the channels were incubated with the same buffer at a similar flow so as to enable dissociation.
(§2) The data were analyzed by means of Biacore Evaluation Software (Pharmacia Biosensor AB, Uppsala, Sweden). […] The association and dissociation speed constants (kₒₙ and koff, respectively) were calculated for the two binding sites. These speed constants were subsequently used to obtain the affinity constants (Kd) for these interactions.
Background: SPR reads the build-up and loss of mass on a sensor chip optically.

In experiment [2] the target is T1, low density lipoprotein …. Put plainly: SPR, LRP immobilized (6.7 fmol/mm^2), two classes of binding sites, class B; Kd = koff/kon. The procedure:
as §1, §2

In experiment [3] the target is T1, low density lipoprotein …. In words: SPR, LRP immobilized (6.7 fmol/mm^2), two classes of binding sites, class B. The procedure: as §1, §2
For experiment [4], the target named is T1, low density lipoprotein …. Put plainly: SPR, LRP immobilized (6.7 fmol/mm^2), two classes of binding sites, class A; Kd = koff/kon. The procedure:
as §1, §2

B1: light chain of Factor VIII (other)
chain: EITRTTLQSDQEEIDYDDTISVEMKKEDFDIYDEDENQSPRSFQKKTRHYFIAAVERLWDYGMSSSPHVLRNRAQSGSVPQFKKVVFQEFTDGSFTQPLYRGELNEHLGLLGPYIRAEVEDNIMVTFRNQASRPYSFYSSLISYEEDQRQGAEPRKNFVKPNETKTYFWKVQHHMAPTKDEFDCKAWAYFSDVDLEKDVHSGLIGPLLVCHTNTLNPAHGRQVTVQEFALFFTIFDETKSWYFTENMERNCRAPCNIQMEDPTFKENYRFHAINGYIMDTLPGLVMAQDQRIRWYLLSMGSNENIHSIHFSGHVFTVRKKEEYKMALYNLYPGVFETVEMLPSKAGIWRVECLIGEHLHAGMSTLFLVYSNKCQTPLGMASGHIRDFQITASGQYGQWAPKLARLHYSGSINAWSTKEPFSWIKVDLLAPMIIHGIKTQGARQKFSSLYISQFIIMYSLDGKKWQTYRGNSTGTLMVFFGNVDSSGIKHNIFNPPIIARYIRLHPTHYSIRSTLRMELMGCDLNSCSMPLGMESKAISDAQITASSYFTNMFATWSPSKARLHLQGRSNAWRPQVNNPKEWLQVDFQKTMKVTGVTTQGVKSLLTSMYVKEFLISSSQDGHQWTLFFQNGKVKVFQGNQDSFTPVVNSLDPPLLTRYLRIHPQSWVHQIALRMEVLGCEAQDLY
notes: also called Factor VIII light chain
For B1, the koff amounted to 0.055 s⁻¹ in experiment [1] and 0.0027 s⁻¹ in experiment [3]. Moreover, the results for the kon in experiment [1] and in experiment [3] were 300000 M⁻¹ s⁻¹ and 72000 M⁻¹ s⁻¹, respectively. The Kd in experiment [2] amounted to 37 nM; in experiment [4], 182 nM.

The record behind these values is patent US20060160994A1 (STICHTING SANQUIN BLOEDVOORZIENING, published 2006).
